Assay results published in the RNAGym collection of RNA variant scans (doi:10.7554/elife.80360).

B1: HDV Ribozyme (parent)
chain: GGCCGGCAUGGUCCCAGCCUCCUCGCUGGCGCCGGCUGGGCAACAUUCCGAGGGGACCGUCCCCUCGGUAAUGGCGAAUGGGACCCA

Variants of: B1
Assay: self-cleavage, relative activity (ratio to wild type); higher = more cleavage; co-transcriptional

Variant | self-cleavage
G67C C85U | 0.92
A71G U79C | 0.339
C66G U69C | 0.898
A70C G80U | 0.217
C66U U69C | 0.92
C66U U69A | 0.831
A71G G76C | 0.73
A71G G76A | 1
U72A A77U | 0.322
G67U C75A | 0.0426
A71G G73C | 0.6
G67C U72C | 0.147
G67C U72A | 0.682
G68U G80C | 0.253
G68U A83U | 0.629
G68U A83G | 0.407
A71G U72A | 0.573
A71G U72C | 0.705
U72A G74A | 0.373
A70C C85A | 0.883
G67C A87G | 0.961
G74A C75U | 0.141
A71G A83U | 0.323
G68C C85U | 0.892

Variant | self-cleavage
G67U | 0.999
G67A | 0.967
G67C | 0.976
G74A A83U | 0.272
C66G C85A | 1.02
C66G C85U | 0.933
U69G A78G | 0.569
G74U C84U | 0.213
C66U G74A | 0.451
G73A C84G | 0.345
G68U A70G | 0.95
G73U U79G | 0.374
G68U U72C | 0.237
A71G G81U | 0.291
U69A A83U | 0.427
U69A A83C | 0.499
C66U G81C | 0.277
C75A C85G | 0.116
G74U C86G | 0.485
C66U C86U | 1.15
C66U C86G | 0.772
G73U C84U | 0.256
U72G A77G | 0.178
U72G A77C | 0.128

Variant | self-cleavage
G73C U79A | 0.302
G74C A87U | 0.304
G74C A77U | 0.104
G74C G80U | 0.127
G67A G73C | 0.13
G67A G73U | 0.227
U72A G76A | 0.759
A70C A71C | 0.762
A70C A71G | 0.831
A71C G82C | 0.268
G68A G73C | 0.257
G68A G73A | 0.463
G68A G73U | 0.251
A70C A77U | 0.237
C66U U72C | 0.518
C66U U72A | 0.525
A70U A71C | 0.802
A70G G73C | 0.356
U69A G74A | 0.511
U69A G74C | 0.297
G74U G76U | 0.794
G74U G76C | 0.831
A71G G82C | 0.151
A70G C85A | 1.07

Variant | self-cleavage
G74A U79C | 0.118
G68U G76U | 1.09
U69A G81A | 0.425
U72G C86G | 0.6
U72G C86A | 1.16
G67A A70G | 0.712
G73U G81U | 0.208
G73A G81C | 0.425
G73A G81U | 0.18
G74C G81U | 0.0831
U69A G82C | 0.554
U69C C84G | 0.875
U69C C84A | 1.09
A70G G74C | 0.107
U69G | 0.981
U69C | 1.02
U69A | 0.977
A70G U79C | 0.365
A70G U79G | 0.582
A70G U79A | 0.77
G68U C85G | 1.07
U72C G73A | 0.407
U72C G73C | 0.208
G74U A78C | 0.201

Variant | self-cleavage
G67U G81U | 0.155
U72G G80U | 0.0963
U69C C75U | 0.0573
U69A C84G | 0.578
G68C C84U | 0.796
A70G G81C | 0.277
C66U A83C | 0.298
G68A U72A | 0.396
G68U C84U | 0.511
G68U C84A | 0.816
C66U A70C | 0.712
C66U A70G | 0.903
C66U A70U | 0.919
U69G A70U | 0.95
U69G A70G | 0.767
G67U G73C | 0.437
A70U A78C | 0.0941
U69C G80A | 0.305
G68A U69C | 0.782
G67A G68C | 0.707
G67U A78C | 0.223
G67U A78G | 0.791
U69G C75A | 0.107
G74A G82A | 0.0656

Variant | self-cleavage
G74A G82C | 0.249
U72A U79A | 0.536
U72A U79G | 0.361
G74U G81C | 0.225
G74U G81U | 0.156
G67U A83G | 0.412
U69A C85U | 0.831
A70U C85A | 1.06
A70U C85U | 0.746
G73A A87C | 0.643
G67A A83U | 0.359
A70C G81C | 0.201
G74A A87U | 0.628
G74A A87C | 0.583
A70G C84U | 0.743
U72G A83C | 0.332
G68U A87C | 1.01
A70G A87G | 1.01
A71C G74U | 0.789
G68C U72G | 0.356
G68C G81U | 0.123
U72A C86U | 0.957
C66G G68U | 0.812
C66U G67C | 1.16

Variant | self-cleavage
G67U U72C | 0.53
U69G G76U | 1.01
A71C A87C | 0.755
A71C A87U | 0.844
G68A C75G | 0.0875
C66U C85G | 0.923
C66U C85U | 0.888
A71C G76A | 0.935
A71C G76C | 0.848
G67C A71G | 0.743
C66U A77U | 0.501
U69C A78G | 0.831
U72G G82C | 0.453
A70G C75G | 0.219
A70G C75U | 0.136
A70U C84A | 0.969
G74A C84A | 0.389
G74A C84G | 0.168
A71G C75U | 0.151
G68C A83C | 0.332
G67C A83G | 0.597
G67C C86U | 0.979
G67C C86A | 0.972
G73C G81C | 0.0292

Variant | self-cleavage
G74A G81A | 0.213
G74A G81U | 0.12
G74A G76A | 0.443
G73A A78G | 0.203
G73A A78U | 0.106
U69G A87U | 1.06
C66G U79G | 0.772
C66G G82U | 0.485
C66G G82C | 0.0959
U72C C75G | 0.166
G68C G80A | 0.421
U69A U79A | 0.665
G68C A77C | 0.185
G68U G81C | 0.223
U69A C75G | 0.138
U69A C75A | 0.119
U69A A87U | 0.913
U69G C86G | 0.692
U69G C86A | 0.917
U72G G73A | 0.707
G68C U79A | 0.705
U69A G80A | 0.434
A71C C86G | 0.63
U69C U79A | 0.684

Variant | self-cleavage
A71G G74U | 0.658
A71G G74A | 0.4
A71G G74C | 0.383
A71C C84G | 0.415
G68C A78C | 0.237
A70G A83C | 0.344
G74U A77U | 0.346
G73A G76C | 0.516
C66U U79A | 0.869
C66U U79G | 0.453
U72A C75A | 0.222
U72C A78U | 0.249
U69C G82A | 0.246
G73U G82A | 0.135
U69A A70C | 0.745
G73C G80C | 0.109
U72G U79G | 0.332
G74U U79A | 0.268
U72G A87G | 0.546
G67A G76A | 0.975
A71G A87C | 1.03
U72C A77G | 0.229
U72C A77U | 0.285
A71U G76U | 1.17

Variant | self-cleavage
C66U A71U | 0.936
A71U C75A | 0.0739
G74U C85G | 0.617
G73C C86G | 0.415
G67U C85A | 0.831
G67U C85G | 0.831
A71G G80C | 0.271
G73C G76C | 0.501
G73C G76U | 0.659
A71C A78C | 0.219
A71C A78G | 0.615
G68A C86G | 1.07
G74A A77G | 0.332
A70G A71U | 0.852
G68A A78C | 0.0733
G68A A78U | 0.277
G67A U79G | 0.807
G68A G81U | 0.124
A71C C85U | 0.875
C75A A87G | 0.251
U72G G74U | 0.264
G74C A83G | 0.104
G68U U79G | 0.374
G68U U79A | 0.928

Variant | self-cleavage
G73U A87G | 0.452
A70U G74U | 0.499
A70U G74A | 0.358
G67A A78C | 0.0963
G67A A78U | 0.234
G67A A78G | 0.604
G73A A77U | 0.189
G73A A77G | 0.386
G68C C75U | 0.272
G68A U79G | 0.584
U72A C84G | 0.213
U72A C84U | 0.578
G67A A71G | 1.05
U69G U79G | 0.895
U69G U79C | 0.326
U69G C85U | 0.811
G68A C84G | 0.475
G68A C84U | 0.872
U69G A71G | 1.16
A70C G82U | 0.166
A71C G80U | 0.182
A71C G80A | 0.266
G74U C75G | 0.13
U69G G81A | 0.469

Variant | self-cleavage
G73A A83G | 0.511
U69C G81A | 0.323
G68C A71C | 0.554
G73U A83U | 0.0462
G68A G82A | 0.287
A71U C86U | 1.02
U72A G82A | 0.295
U72A G82U | 0.225
G67U G74U | 0.453
G67C G76C | 1.09
G73U G80U | 0.124
G73U G80C | 0.2
G67A A77G | 0.712
G67C G74U | 0.332
G67C G74A | 0.415
C66U C84U | 0.683
C66U C84A | 0.909
A71C A77C | 0.0978
A71C A77U | 0.322
A71C A77G | 0.569
G68U G82C | 0.215
G74U | 0.569
G74C | 0.213
G74A | 0.478

Variant | self-cleavage
U69G G80C | 0.219
C66G C84A | 0.923
U69C A71U | 1.01
U72G C85A | 0.653
U69A A77C | 0.199
G67A U72C | 0.539
U69G A77U | 0.375
A70G C86U | 1.23
G68A C85U | 0.95
A70C C84G | 0.323
G74C C84G | 0.0875
G73U G76C | 0.158
G73U G76A | 0.208
A71U A77C | 0.287
C66G G74C | 0.199
A71U C85A | 1.08
G67C A77G | 0.508
G67U A70C | 0.987
G68U C86G | 0.945
G73U C86G | 0.354
G68C G76A | 1.04
U69G U72C | 0.485
U69C A87G | 1.1
A70G U72G | 0.582

Variant | self-cleavage
A70U U72C | 0.653
A70C A83U | 0.475
G67A C84G | 0.369
G67A C84U | 0.658
G67A C84A | 0.831
G67U A87C | 0.925
G68A G76C | 0.88
G68A G76U | 1.14
G67A G74A | 0.403
G67A G74C | 0.132
U69C G73A | 0.653
G67C C84U | 0.523
G67C C84G | 0.499
A71U G73U | 0.237
U72C G80C | 0.19
G68C G74U | 0.394
U72C G74U | 0.584
A70G G80C | 0.104
C66G G80A | 0.338
A71C G81U | 0.17
U72C G81U | 0.148
U72A G73C | 0.628
